Measurements taken from patent US20140178332A1 (published 2014).

Target: T1, recombinant purified human IL-12 p70 (human, UniProt P29459 23-219)
T1 construct: Disulfide-linked heterodimer of p35 and p40; also called hIL-12; Hu IL-12
T1 sequence 1: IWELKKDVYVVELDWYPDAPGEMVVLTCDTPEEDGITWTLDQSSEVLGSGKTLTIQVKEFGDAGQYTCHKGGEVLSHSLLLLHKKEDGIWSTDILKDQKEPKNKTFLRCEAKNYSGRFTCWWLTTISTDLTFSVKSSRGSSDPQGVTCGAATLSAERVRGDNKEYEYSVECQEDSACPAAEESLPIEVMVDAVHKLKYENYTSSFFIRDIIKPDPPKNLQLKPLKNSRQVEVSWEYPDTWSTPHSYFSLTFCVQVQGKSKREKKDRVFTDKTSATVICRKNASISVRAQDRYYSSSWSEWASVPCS
T1 sequence 2: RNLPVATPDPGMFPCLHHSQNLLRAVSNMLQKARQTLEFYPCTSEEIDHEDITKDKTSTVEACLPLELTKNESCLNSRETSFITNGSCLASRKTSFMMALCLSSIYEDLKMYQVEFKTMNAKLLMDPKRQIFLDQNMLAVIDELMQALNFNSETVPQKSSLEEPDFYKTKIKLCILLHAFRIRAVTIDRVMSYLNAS
Assay: competition ELISA on coated human IL-12, competitor of 0.8 µg/ml biotinylated 8E1, Expt. 3
Protocol: MaxiSorp ELISA plates (Nalge Nunc International) were coated overnight at 4° C. with 100 μl/well of 1.0 μg/ml human IL-12 in 0.2 M sodium carbonate-bicarbonate buffer, pH 9.4, washed with Wash Buffer (PBS containing 0.1% Tween 20), and blocked for 1 hr at room temperature with 300 μl/well of SuperBlock Blocking Buffer in TBS (Pierce Chemical Company). […] As isotype controls, 100 μl/well of 100 μg/ml mouse IgG 1/κ (MuFd79) or humanized IgG1/κ (HuFd79) monoclonal antibodies in ELISA buffer was used. As a no-competitor control, 100 μl/well of ELISA Buffer was used. After incubating the plates for 1 hr at room temperature, and washing with Wash Buffer, bound antibodies were detected using 100 μl/well of 1 μg/ml HRP-conjugated streptavidin (Pierce Chemical Company) in ELISA buffer. After incubating for 1 hr at room temperature, and washing with Wash Buffer, color development was performed by adding 100 μl/well of ABTS Peroxidase Substrate/Peroxidase Solution B (KPL, Inc.). After incubating for 5 min at room temperature, color development was stopped by adding 50 μl/well of 2% oxalic acid. Absorbance was read at 415 nm.
The affinity of 8E1.4, 8E1.5 and 8E1.6 to human IL-12 was analyzed by competition ELISA as described above.

- IC50: 2.28 µg/mL
B1: murine anti-human IL-12p40 monoclonal antibody 8E1 (antibody, V domains shown)
VH: EVKLVESGGGLVQPGGSRKLSCAASGFTFSDYGMVWVRQAPGKGLEWVASISSGSSNIYYADTVKGRFTISRDDPNNTLFLQMRSLRSEDTAMYYCARNPYWGQGTTLTVSS
VL: DIVMTQSQKFMSTSVGDRVSVTCKASQNVGTNVAWYQQKPGQSPKGLIYSASHRYSGVPDRFAGSGSGTDFTLTISNVQSEDLAEYFCQQYNSYPLTFGGGTKLELKR
notes: Murine mAb; also called biotinylated 8E1
